Test results as given in US20260193372A1 (Hoffmann-La Roche, published 2026).

What was measured:
[1] = biological target: mixture of 10 nM human Factor B, 5 nM human Ba and 10 nM human Bb coated on the plate; experiment: counterscreening ELISA, plate coated with a mixture of human Factor B, Ba and Bb, Fab supernatant
[2] = biological target: T1, stabilized human C3bBb complex comprising the Bb subunit of the FB protein of SEQ ID NO: 3 (triple mutant), … (human, UniProt P01024 23-667; P00751 260-764; P01024 749-1663, limits assumed, biotinylated with EZ-Link HPDP-Biotin (Cys)); experiment: ELISA, biotinylated C3bBb on streptavidin plate, Fab supernatant, anti kappa/anti T7 HRP
T1 construct: also called C3bBb (D279G/350N/M458I); C3bBb triple mutant-HPDP
T1 sequence (P01024 23-667 limits assumed, stated change not applied, chain 1 of 3, one chain of several): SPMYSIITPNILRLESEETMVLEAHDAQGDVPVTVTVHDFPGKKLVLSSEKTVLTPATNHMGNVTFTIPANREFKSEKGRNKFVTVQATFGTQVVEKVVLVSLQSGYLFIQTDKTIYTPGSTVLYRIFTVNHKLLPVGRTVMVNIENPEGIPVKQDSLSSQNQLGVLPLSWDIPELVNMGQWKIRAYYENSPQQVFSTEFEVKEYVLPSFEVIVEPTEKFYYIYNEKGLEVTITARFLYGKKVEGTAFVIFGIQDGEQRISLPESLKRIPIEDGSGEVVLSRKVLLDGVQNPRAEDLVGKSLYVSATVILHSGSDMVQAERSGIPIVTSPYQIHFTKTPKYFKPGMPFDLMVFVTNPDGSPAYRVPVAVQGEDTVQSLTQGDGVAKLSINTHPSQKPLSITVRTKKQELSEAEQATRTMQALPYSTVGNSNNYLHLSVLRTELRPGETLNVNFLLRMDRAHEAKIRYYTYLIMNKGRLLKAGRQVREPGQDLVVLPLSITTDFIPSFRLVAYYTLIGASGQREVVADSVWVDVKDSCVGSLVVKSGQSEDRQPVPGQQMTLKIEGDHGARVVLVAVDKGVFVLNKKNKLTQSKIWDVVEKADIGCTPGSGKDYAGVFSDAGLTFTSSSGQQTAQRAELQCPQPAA
T1 sequence (P01024 749-1663 limits assumed, stated change not applied, chain 3 of 3, one chain of several): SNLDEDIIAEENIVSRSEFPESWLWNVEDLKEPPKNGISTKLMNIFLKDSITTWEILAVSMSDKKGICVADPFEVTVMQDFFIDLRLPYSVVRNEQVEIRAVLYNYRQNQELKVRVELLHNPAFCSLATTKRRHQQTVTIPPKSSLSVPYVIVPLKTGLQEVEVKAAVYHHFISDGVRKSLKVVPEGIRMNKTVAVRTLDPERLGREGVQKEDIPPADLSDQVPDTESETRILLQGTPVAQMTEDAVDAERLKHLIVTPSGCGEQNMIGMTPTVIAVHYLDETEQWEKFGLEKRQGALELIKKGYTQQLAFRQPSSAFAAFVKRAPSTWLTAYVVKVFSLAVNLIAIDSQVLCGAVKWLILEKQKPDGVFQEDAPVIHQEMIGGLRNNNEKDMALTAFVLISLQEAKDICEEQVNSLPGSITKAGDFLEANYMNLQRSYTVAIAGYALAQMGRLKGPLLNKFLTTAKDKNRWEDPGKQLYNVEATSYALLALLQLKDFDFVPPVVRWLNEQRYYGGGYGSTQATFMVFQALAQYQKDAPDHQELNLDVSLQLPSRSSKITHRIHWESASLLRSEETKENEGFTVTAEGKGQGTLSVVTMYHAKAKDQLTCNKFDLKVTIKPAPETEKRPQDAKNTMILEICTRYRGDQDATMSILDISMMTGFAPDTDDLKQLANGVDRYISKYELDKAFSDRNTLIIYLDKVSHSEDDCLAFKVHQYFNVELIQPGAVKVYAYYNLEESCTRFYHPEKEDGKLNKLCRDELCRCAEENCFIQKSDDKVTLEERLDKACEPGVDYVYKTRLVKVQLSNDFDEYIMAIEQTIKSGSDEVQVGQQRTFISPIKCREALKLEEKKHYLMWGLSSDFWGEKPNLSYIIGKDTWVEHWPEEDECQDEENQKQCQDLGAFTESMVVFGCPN
Method: (§1) Method: 20 μl of a mixture of 500 ng/ml stabilized human C3bBb-Cys-HPDP-Biotin (inhouse preparation), 1:3000 mouse anti human kappa HRP (Southern Biotech 9230-05) and 1:2000 Mouse IgG anti T7 Tag HRP (Novagen 69048-3) was added to a Microcoat Streptavidine coated 384 well Microplate (Microcoat 11974998001). 25 μl sample was added to the plate and incubated at room temperature for 1 hour. After incubation plates were washed with 90 μl/well washing buffer using a Biotek EL406 Washer and 30 μl TMB (3,3′,5,5′-3,3,5,5-Tetramethylbenzidine, Roche 11835033001) was added. After a 5 Minute incubation at room temperature the optical density (OD) was measured at 370 nm using an En Vision Multimode Plate Reader (Perkin Elmer).

[3] = biological target: T2, stabilized human C3bBb complex comprising the Bb subunit of the FB protein of SEQ ID NO: 2 (single mutant), … (human, UniProt P01024 23-667; P00751 260-764; P01024 749-1663, limits assumed, biotinylated with EZ-Link HPDP-Biotin (Cys)); experiment: as above
T2 construct: also called C3bBb (D279G)
T2 sequence (P01024 23-667 limits assumed, stated change not applied, chain 1 of 3): as the sequence (P01024 23-667 limits assumed, stated change not applied, chain 1 of 3, one chain of several) above
T2 sequence (P00751 other isoform, or with tags, fused parts or gaps mutant limits assumed, chain 2 of 3): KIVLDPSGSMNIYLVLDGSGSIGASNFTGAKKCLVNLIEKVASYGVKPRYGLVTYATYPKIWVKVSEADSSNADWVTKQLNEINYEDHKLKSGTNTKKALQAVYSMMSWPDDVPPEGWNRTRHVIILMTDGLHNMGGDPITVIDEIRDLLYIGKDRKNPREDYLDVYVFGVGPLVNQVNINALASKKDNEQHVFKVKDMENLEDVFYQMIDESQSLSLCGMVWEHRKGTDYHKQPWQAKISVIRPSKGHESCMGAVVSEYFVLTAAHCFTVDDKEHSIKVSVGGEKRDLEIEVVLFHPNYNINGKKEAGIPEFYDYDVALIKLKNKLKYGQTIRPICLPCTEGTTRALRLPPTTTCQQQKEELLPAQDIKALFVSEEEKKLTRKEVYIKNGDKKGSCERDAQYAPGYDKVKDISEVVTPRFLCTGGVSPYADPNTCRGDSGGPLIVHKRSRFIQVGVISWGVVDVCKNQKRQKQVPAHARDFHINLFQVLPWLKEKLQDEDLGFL
T2 sequence (P01024 749-1663 limits assumed, stated change not applied, chain 3 of 3): as the sequence (P01024 749-1663 limits assumed, stated change not applied, chain 3 of 3, one chain of several) above
Method: as §1

[4] = biological target: mixture of 5 nM human C3, 5 nM human C3a and 2.5 nM human C3b coated on the plate; experiment: counterscreening ELISA, plate coated with a mixture of human C3, C3a and C3b, Fab supernatant
[5] = biological target: T3, plasma purified C3b (Complement Technology), biotinylated at cysteine 1010 with Maleimide-PEG3-biotin (human, UniProt P01024 23-667; P01024 749-1663, limits assumed, cysteine 1010 biotinylated (Maleimide-PEG3-biotin)); experiment: BLI, biotinylated C3b on streptavidin sensor, FB with factor D, Ni2+ buffer, dissociation of C3bBb, single exponential fit
T3 construct: Loaded on streptavidin BLI sensors; also called Complement C3 beta chain (C3b); C3 fragment
T3 sequence (P01024 23-667 limits assumed, chain 1 of 2): as the sequence (P01024 23-667 limits assumed, stated change not applied, chain 1 of 3, one chain of several) above
T3 sequence (P01024 749-1663 limits assumed, chain 2 of 2): as the sequence (P01024 749-1663 limits assumed, stated change not applied, chain 3 of 3, one chain of several) above
From the text: Correction of the BLI trace was identical to the experiment in presence of magnesium. Different from the Mg2+ containing C3bBb complexes, only one species was detected during dissociation and a single exponential decay (A*exp(((−1)*B)*x)) was used for analysis.

[6] = biological target: T3, plasma purified C3b (Complement …); experiment: BLI, biotinylated C3b on streptavidin sensor, FB with factor D, Mg2+ buffer, dissociation of C3bBb, double exponential fit
Method: To analyze stability of the C3bBb complexes having the different Bb subunits, C3b cysteine 1010 was biotinylated by incubating plasma purified C3b (Complement Technology) overnight at 4° C. in presence of 5 molar excess Maleimide-PEG3-biotin (Thermo Fisher Scientific) followed by purification on a Zeba spin column 40K (Thermo Fisher Scientific). This material was used to load streptavidin functionalized BLI sensors (SA sensors; Fortebio) in an Octet RED 384 device (Fortebio) at high density (5 nm BLI signal). C3bBb was assembled by exposing the C3b loaded sensors to different recombinant factor B variants (i.e. wild type SEQ ID NO: 1; D279G variant of SEQ ID NO: 2; D279G K350N M458I triple variant of SEQ ID NO: 3) in presence of 54 nM plasma purified factor D (Complement Technology) in HBS-T (Mg) buffer (150 mM NaCl, 10 mM HEPES, 1 mM MgCl2, 0.005% Tween20. pH 7.4) at 22° C. […]
After subtraction of the signal recorded from parallel reference sensors omitting the C3b loading step and subtraction of a control sensor omitting factor B and factor D, data of the dissociation phase was fitted to the double exponential ((A*exp(((−1)*B)*x)))+(C*exp(((−1)*D)*x)) using XLfit (IDBS software), allowing for heterogeneity in the assembled convertase population. […]

[7] = biological target: T3, plasma purified C3b (Complement …); experiment: BLI, dissociation of C3bBb, Ni2+ buffer, against wild type C3bBb formed in presence of magnesium ions

B1: C3bBb.P048.061 (Fab, V domains shown)
VH: GQLVESGGGLVKPGGSLRLSCKASGFYWGPGAMSWVRQAPGKGLEWVGSISPKGGSTDINPKIGGRFTISRDNNQDTLYLQMNSLRAEDTAVYYCARDIGFFDTWGQGTLVTVSS
VL: AIQMTQSPSSLSASVGDRVTITCQGSWLISNYLAWYQQKPGKAPKLLIFDAKYRAPEVPSRFSGSGSGTDFTLTISSLQPEDFATYYCQQYGGRLLTFGQGTKVEIK
notes: Tested as soluble Fab in E. coli supernatant with a T7 tag at the C-terminus of the Fab CH1 domain; detected with anti human kappa
In the case of B1, the OD (370 nm) [1] is reported as 0.006 OD, the “OD (370 nm)” value [2] is reported as 1.9 OD and the “OD (370 nm)” value [3] is reported as 0.004 OD. It also gave an OD (370 nm) [4] of 0.001 OD.

B2: C3bBb.P055.015 (Fab, V domains shown)
VH: GQLVESGGGLVKPGGSLRLSCKASGFYWGPGAMSWVRQAPGKGLEWVGSISPKGGSAEYASKVYGRFTISRDNNQDTLYLQMNSLRAEDTAVYYCARDIGFFDTWGQGTLVTVSS
VL: DYQMTQSPSSLSASVGDRVTITCEAHSQISNYLAWYQQKPGKAPKLLIFDAKYRAPEVPSRFSGSGSGPDFTLTISSLQPEDFATYYCQQYNDFWLTFGQGTKVEIK
notes: as for B1
For B2, the OD (370 nm) [1] was 0.004 OD, the “OD (370 nm)” value [2] was -0.01 OD and the “OD (370 nm)” value [3] was 0.86 OD. It also gave an OD (370 nm) [4] of -0.014 OD.

B3: C3bBb.P048.241 (Fab, V domains shown)
VH: GQLVESGGGLVKPGGSLRLSCKASGFYWGPGAMSWVRQAPGKGLEWVGSISPKGGSAWYNNNFTGRFTISRDNNQDTLYLQMNSLRAEDTAVYYCARDIGFFDTWGQGTLVTVSS
VL: INQMTQSPSSLSASVGDRVTITCQAKWVISNYLAWYQQKPGKAPKLLIFDAKYRAPEVPSRFSGSGSDGTFTLTISSLQPEDFATYYCQQYDWWPYTFGQGTKVEIK
notes: as for B1
For B3, the OD (370 nm) [1] was 0.037 OD, the “OD (370 nm)” value [2] was 2.38 OD and the “OD (370 nm)” value [3] was 2.57 OD. The OD (370 nm) [4] was 0.17 OD.

B4: C3bBb.P048.127 (Fab, V domains shown)
VH: GQLVESGGGLVKPGGSLRLSCKASGFYWGPGAMSWVRQAPGKGLEWVGSISPKGGSTEYNTKVYGRFTISRDNNQDTLYLQMNSLRAEDTAVYYCARDIGFFDTWGQGTLVTVSS
VL: HQMTQSPSSLSASVGDRVTITCDGEWDISNYLAWYQQKPGKAPKLLIFDAKYRAPEVPSRFSGSGSGRDFTLTISSLQPEDFATYYCQQYNRMYFTFGQGTKVEIK
notes: as for B1
In the case of B4, the OD (370 nm) [1] is reported as 0.002 OD, the “OD (370 nm)” value [2] is reported as 0.187 OD and the “OD (370 nm)” value [3] is reported as 2.42 OD. It also gave an OD (370 nm) [4] of -0.006 OD.

B5: C3bBb.P045.072 (Fab, V domains shown)
VH: KLQLVESGGGLVKPGGSLRLSCAASGRRFGVQDMSWVRQAPGKGLEWVGSISPKGDHKYLNTKFIGRFTISRDNSKNTLYLQMNSLRAEDTAVYYCARDWGYFDQWGQGTLVTVSS
VL: AIQMTQSPSSLSASVGDRVTITCHGSYWLSSEVAWYQQKPGKAPKLLIYDGNGIIGNVPSRFSGSGSHEDYTLTISSLQPEDFATYYCQQYRYHPYTFGHGTKVEIK
notes: as for B1
With B5 the OD (370 nm) [1] was -0.01 OD, the “OD (370 nm)” value [2] was 2.9 OD and the “OD (370 nm)” value [3] was 0.023 OD. It also gave an OD (370 nm) [4] of -0.005 OD.

B6: recombinant human FB with D279G, K350N and M458I with His Tag and Precission site (enzyme)
chain: KIVLDPSGSMNIYLVLDGSGSIGASNFTGAKKCLVNLIEKVASYGVKPRYGLVTYATYPKIWVKVSEADSSNADWVTKQLNEINYEDHKLNSGTNTKKALQAVYSMMSWPDDVPPEGWNRTRHVIILMTDGLHNMGGDPITVIDEIRDLLYIGKDRKNPREDYLDVYVFGVGPLVNQVNINALASKKDNEQHVFKVKDIENLEDVFYQMIDESQSLSLCGMVWEHRKGTDYHKQPWQAKISVIRPSKGHESCMGAVVSEYFVLTAAHCFTVDDKEHSIKVSVGGEKRDLEIEVVLFHPNYNINGKKEAGIPEFYDYDVALIKLKNKLKYGQTIRPICLPCTEGTTRALRLPPTTTCQQQKEELLPAQDIKALFVSEEEKKLTRKEVYIKNGDKKGSCERDAQYAPGYDKVKDISEVVTPRFLCTGGVSPYADPNTCRGDSGGPLIVHKRSRFIQVGVISWGVVDVCKNQKRQKQVPAHARDFHINLFQVLPWLKEKLQDEDLGFL
notes: Cleaved by factor D in the assay; the Bb subunit stays on C3b; also called FB (D279G, K350N and M458I); triple mutated Bb
With B6 the “prevalence of main species” value [5] was 100%, the “t ½” value [5] was 11.3 h and the “prevalence of main species” value [6] was 93%. The “t ½” value [6] was 1.98 h and the “fold increase in C3bBb half-life” value [7] was 135 fold.
